Laboratory results from PMC10457330, “Structural basis for the allosteric modulation of rhodopsin by nanobody binding to its extracellular domain” (Nature Communications, 2023).

What was measured:
[1] = target: photoactivated bovine rhodopsin (Bos taurus (native, rod outer segments), UniProt P02699, all-trans-retinylidene chromophore after photoisomerization; N-linked glycans at Asn2 and Asn15)
[2] = target: ground-state bovine rhodopsin (native, from rod outer segments) (bovine, UniProt P02699, 11-cis-retinylidene chromophore (Schiff base at Lys296); N-linked glycans at Asn2 and Asn15)
Chain of ground-state bovine rhodopsin (native, from rod outer segments) (P02699 whole entry): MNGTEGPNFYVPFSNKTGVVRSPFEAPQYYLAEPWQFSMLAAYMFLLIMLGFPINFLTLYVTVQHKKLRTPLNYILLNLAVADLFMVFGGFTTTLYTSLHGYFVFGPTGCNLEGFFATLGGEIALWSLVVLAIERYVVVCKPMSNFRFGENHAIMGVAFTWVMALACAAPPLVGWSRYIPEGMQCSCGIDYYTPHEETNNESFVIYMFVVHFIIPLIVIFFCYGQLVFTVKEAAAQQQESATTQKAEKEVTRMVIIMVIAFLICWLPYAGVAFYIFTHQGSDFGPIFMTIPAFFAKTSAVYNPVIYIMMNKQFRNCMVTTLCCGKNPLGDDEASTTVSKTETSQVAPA

Chain of photoactivated bovine rhodopsin (P02699 whole entry): as above

B1: Nb12 (VHH)
VHH: QVQLVESGGGLVQPGGSLRLSCAASGFTFNRYVMNWVRQAPGKGLEWVSGISRDGSYTDYADSVKGRFTISRDNAKDTLYLQMNSLKPEDTAVYYCSKYNSVVTTPPGQGTQVTVSS
B1: binds [1]; binds [2].

B2: Nb22 (VHH)
VHH: QVQLVESGGGLVQAGGSLRLSCTASGNSFTFYTMGWYRQAPGKQRELVASITHRDSTNYADSMKDRFTISRDNSKNTVYLQMNSLKAEDTAVYYCNLHGRTRLLGREYDYWGQGTQVTVSS
B2: binds [1]; binds [2].
